We go through two molecules from paper PMC3124363 (Nature chemical biology, 2011).

For this assay, the target named is GST-Cdk1/GST-cyclin B1 complex (UniProt P06493 1-297; P14635 1-433). Kind of assay: cell-based or functional assay.
Chain of GST-Cdk1/GST-cyclin B1 complex (P06493 whole entry, chain 1 of 2): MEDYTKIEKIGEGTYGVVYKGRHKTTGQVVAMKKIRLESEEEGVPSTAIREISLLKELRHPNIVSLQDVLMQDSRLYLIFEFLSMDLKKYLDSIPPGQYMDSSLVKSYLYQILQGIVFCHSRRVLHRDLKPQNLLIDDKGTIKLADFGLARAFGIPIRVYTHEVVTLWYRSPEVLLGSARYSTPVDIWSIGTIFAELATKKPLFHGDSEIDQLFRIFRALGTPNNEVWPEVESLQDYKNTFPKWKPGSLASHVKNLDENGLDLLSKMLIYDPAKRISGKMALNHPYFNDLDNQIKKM
Chain of GST-Cdk1/GST-cyclin B1 complex (P14635 whole entry, chain 2 of 2): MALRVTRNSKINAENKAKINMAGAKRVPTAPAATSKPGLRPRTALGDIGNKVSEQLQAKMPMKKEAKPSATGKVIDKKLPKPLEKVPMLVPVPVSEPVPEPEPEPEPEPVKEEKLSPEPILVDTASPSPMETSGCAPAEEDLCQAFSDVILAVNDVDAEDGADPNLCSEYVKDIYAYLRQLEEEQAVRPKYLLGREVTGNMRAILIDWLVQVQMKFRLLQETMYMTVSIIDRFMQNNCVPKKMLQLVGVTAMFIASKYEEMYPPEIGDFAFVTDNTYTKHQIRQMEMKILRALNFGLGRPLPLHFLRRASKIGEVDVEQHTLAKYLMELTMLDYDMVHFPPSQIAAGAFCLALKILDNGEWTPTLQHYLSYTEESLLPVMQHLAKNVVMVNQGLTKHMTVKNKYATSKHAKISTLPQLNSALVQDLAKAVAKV

B1: p21-KID-LH−3 (p21-KID with sub-domain LH shortened by three residues) (domain or fragment, human, UniProt P38936 9-84, looked up)
chain: RQNPCGSKACRRLFGPVDSEQLSRDCDALMAGCIQEAWNFDFVTETPLEGDFAWERVRGLGLPKLYLPTGPRR
Consider B1, for which the “IC50 of inhibition of Cdk1/cyclin B1 kinase activity in vitro (substrate Rb^C)” value was 218 nM.

B2: p21-KID-LH+3 (p21-KID with sub-domain LH lengthened by three residues) (domain or fragment, human, UniProt P38936 9-84, looked up)
chain: RQNPCGSKACRRLFGPVDSEQLSRDCDALMAGCIQEARERALRWNFDFVTETPLEGDFAWERVRGLGLPKLYLPTGPRR
With B2, the “IC50 of inhibition of Cdk1/cyclin B1 kinase activity in vitro (substrate Rb^C)” value was 71 nM.
